Data: article PMC8606531, “The Impact of Rare Human Variants on Barrier-To-Auto-Integration Factor 1 (Banf1) Structure and Function”
Where a chain is given by its changes, count along the chain named.

Columns and labels:
Assay in all cases: EMSA; EC50; 10 mM KH2PO4, 100 mM NaCl, 0.01% IGEPAL, 5 nM Cy5 DNA, 30 min at 37 C; pH not stated; 8% gel in 1x TBE at 4 C
Conditions in all cases: protein: recombinant; tags: N-terminal His6 (pET-28a NdeI-XhoI); chain copies: 2; label: 5' Cy5 on forward strand; blunt
Banf1 H7Y = biological target: T1, Banf1 H7Y (Homo sapiens, UniProt O75531 1-89, H7Y)
T1 sequence: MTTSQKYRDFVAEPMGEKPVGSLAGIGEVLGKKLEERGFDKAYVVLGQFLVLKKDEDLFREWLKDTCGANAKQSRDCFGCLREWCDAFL

Banf1 R75W = biological target: T2, Banf1 R75W (Homo sapiens, UniProt O75531 1-89, R75W)
T2 sequence: T1 sequence with Y7H, R75W

Banf1 N70T = biological target: T3, Banf1 N70T (Homo sapiens, UniProt O75531 1-89, N70T)
T3 sequence: T1 sequence with Y7H, N70T

B1: Cy5 40 bp dsDNA (dsDNA)
DNA 1: AGGAGCGCCAGACCCACCAAGAGCCCTCTATCGGTTGGGA
DNA 2: TCCCAACCGATAGAGGGCTCTTGGTGGGTCTGGCGCTCCT
apparent K (half saturation) (Banf1 H7Y): 26.1 ± 5.02 nM | apparent K (half saturation) (Banf1 R75W): 27.8 ± 3.17 nM | apparent K (half saturation) (Banf1 N70T): 34.9 ± 4.38 nM
